Measurements: patent publication US20250215101A1, “DR5 Agonist and PLK1 Inhibitor or CDK Inhibitor Combination Therapy” (Inhibrx Biosciences, Inc., priority 2022, published 2025)

Experiments:
Format in all cases: cell-based
HT-29 = experiment: Cell viability (CellTiter-Glo) cytotoxicity assay, INBRX-109 x onvansertib matrix, 48 h; conditions: HT-29
Procedure: (§1) Monolayer cultures of each cell line were harvested for compound screening as detailed below.
(§2) Onvansertib: A 10 mg stock of onvansertib was purchased from Selleck Chemicals and was resuspended to 10 mM in DMSO. This was then aliquoted and stored at −80° C. Aliquots were thawed immediately prior to dilution and use in the assay. A 500× master plate of serial dilutions (6-point 5-fold dilutions in 100% DMSO starting at 500 μM, plus a DMSO only control) was prepared and mixed gently with a pipette. To generate a 5× working dilution plate of onvansertib, a 1:100 dilution was performed from the 500× plate into complete media (EMEM).
(§3) Also on day 2, test and control articles were added.
(§4) On day 4, viability measurements were taken. […] Data was graphed in GraphPad Prism 9.

LS174T = experiment: as above
Procedure: as §1, §2, §3, §4

LS411N = experiment: as above
Procedure: as §1, §2, §3, §4

SW1463 = experiment: as above; conditions: SW1463
Procedure: as §1, §2, §3, §4

SW620 = experiment: as above; conditions: SW620; INBRX-109 only (Table 1)
Procedure: as §1, §2, §3, §4

SW837 = experiment: as above; conditions: SW837
Procedure: as §1, §2, §3, §4

NCI-H716 = experiment: Cytotoxicity assay, colorectal cancer cell line panel, onvansertib +/- 1 nM INBRX-109; conditions: NCI-H716; 1 nM INBRX-109 only
Procedure: as §1, §3, §4
(§5) The results for a panel of colorectal cancer cell lines are shown in Table 3 and FIGS. 4-6, and the results for a panel of pancreatic cell lines are shown in Table 4 and FIGS. 7 and 8.

SW-1463 = experiment: as above; conditions: SW-1463; 1 nM INBRX-109 only
Procedure: as §1, §3, §4, §5

AsPC-1 = experiment: Cytotoxicity assay, pancreatic cell line panel, onvansertib +/- 1 nM INBRX-109; conditions: AsPC-1; 1 nM INBRX-109 only
Procedure: as §1, §3, §4, §5

BxPC-3 = experiment: as above; conditions: BxPC-3; 1 nM INBRX-109 only
Procedure: as §1, §3, §4, §5

CFPAC-1 = experiment: as above; conditions: CFPAC-1; 1 nM INBRX-109 only
Procedure: as §1, §3, §4, §5

Capan-1 = experiment: as above; conditions: Capan-1; 1 nM INBRX-109 only
Procedure: as §1, §3, §4, §5

Capan-2 = experiment: as above; conditions: Capan-2; 1 nM INBRX-109 only
Procedure: as §1, §3, §4, §5

HPAF-II = experiment: as above; conditions: 1 nM INBRX-109 only
Procedure: as §1, §3, §4, §5

HuP-T4 = experiment: as above; conditions: HuP-T4; 1 nM INBRX-109 only
Procedure: as §1, §3, §4, §5

KP4 = experiment: as above; conditions: KP4; 1 nM INBRX-109 only
Procedure: as §1, §3, §4, §5

MIA PaCa-2 = experiment: as above; conditions: MIA PaCa-2; 1 nM INBRX-109 only
Procedure: as §1, §3, §4, §5

PANC-1 = experiment: as above; conditions: PANC-1; 1 nM INBRX-109 only
Procedure: as §1, §3, §4, §5

PL45 = experiment: as above; conditions: PL45; 1 nM INBRX-109 only
Procedure: as §1, §3, §4, §5

PSN-1 = experiment: as above; conditions: PSN-1; 1 nM INBRX-109 only
Procedure: as §1, §3, §4, §5

Panc 03.27 = experiment: as above; conditions: Panc 03.27; 1 nM INBRX-109 only
Procedure: as §1, §3, §4, §5

Panc 05.04 = experiment: as above; conditions: Panc 05.04; 1 nM INBRX-109 only
Procedure: as §1, §3, §4, §5

Panc 10.05 = experiment: as above; conditions: Panc 10.05; 1 nM INBRX-109 only
Procedure: as §1, §3, §4, §5

SU.86.86 = experiment: as above; conditions: SU.86.86; 1 nM INBRX-109 only
Procedure: as §1, §3, §4, §5

SW-1990 = experiment: as above; conditions: SW-1990; 1 nM INBRX-109 only
Procedure: as §1, §3, §4, §5

B1: INBRX-109: DR5-binding polypeptide consisting of SEQ ID NO: 7 (two VHH domains and an Fc region); DR5 agonist (protein)
chain: EVQLLESGGGEVQPGGSLRLSCAASGLTFPNYGMGWFRQAPGKEREFVSAIYWSGGTVYYAESVKGRFTISRDNAKNTLYLQMSSLRAEDTAVYYCAVTIRGAATQTWKYDYWGQGTLVTVKPGGSGGSEVQLLESGGGEVQPGGSLRLSCAASGLTFPNYGMGWFRQAPGKEREFVSAIYWSGGTVYYAESVKGRFTISRDNAKNTLYLQMSSLRAEDTAVYYCAVTIRGAATQTWKYDYWGQGTLVTVKPGGGGDKTHTCPPCPAPGGPSVFLFPPKPKDTLMISRTPEVTCVVVDVSHEDPEVKFNWYVDGVEVHNAKTKPREEQYNSTYRVVSVLTVLHQDWLNGKEYKCKVSNKALPAPIEKTISKAKGQPREPQVYTLPPSRDELTKNQVSLTCLVKGFYPSDIAVEWESNGQPENNYKTTPPVLDSDGSFFLYSKLTVDKSRWQQGNVFSCSVMHEALHNHYTQKSLSLSPGK
modifications: INBRX-109
notes: DR5 agonist
HT-29; INBRX-109 + 200 nM onvansertib
  Max Cytotox: 94.94%
HT-29; INBRX-109 only (Table 1)
  EC50: 0.0116 nM
  Max Cytotox: 71.42%
LS174T; INBRX-109 + 200 nM onvansertib
  EC50: 0.0907 nM
  Max Cytotox: 79.32%
LS174T; INBRX-109 only (Table 1)
  EC50: 0.0106 nM
  Max Cytotox: 59.68%
LS411N; INBRX-109 + 200 nM onvansertib
  Max Cytotox: 88.9%
LS411N; INBRX-109 only (Table 1)
  EC50: Unstable
SW1463; INBRX-109 + 200 nM onvansertib
  EC50: 0.00495 nM
  Max Cytotox: 73.74%
SW1463; INBRX-109 only (Table 1)
  EC50: 0.066 nM
  Max Cytotox: 38.14%
SW620
  EC50: 0.00478 nM
  Max Cytotox: 20.25%
SW837; INBRX-109 + 200 nM onvansertib
  Max Cytotox: 80.64%
SW837; INBRX-109 only (Table 1)
  EC50: 0.00123 nM
  Max Cytotox: 6.43%
NCI-H716
  Max Cytotox at 1 nM: 9.2%
SW-1463
  Max Cytotox at 1 nM: 28.5%
AsPC-1
  Max Cytotox at 1 nM: 14.5%
BxPC-3
  Max Cytotox at 1 nM: 51.3%
CFPAC-1
  Max Cytotox at 1 nM: 23.8%
Capan-1
  Max Cytotox at 1 nM: 86.9%
Capan-2
  Max Cytotox at 1 nM: 11.1%
HPAF-II
  Max Cytotox at 1 nM: 22.8%
HuP-T4
  Max Cytotox at 1 nM: 80.7%
KP4
  Max Cytotox at 1 nM: 7.8%
MIA PaCa-2
  Max Cytotox at 1 nM: 77.9%
PANC-1
  Max Cytotox at 1 nM: 32.6%
PL45
  Max Cytotox at 1 nM: 14.1%
PSN-1
  Max Cytotox at 1 nM: 91.9%
Panc 03.27
  Max Cytotox at 1 nM: 53.2%
Panc 05.04
  Max Cytotox at 1 nM: 97.0%
Panc 10.05
  Max Cytotox at 1 nM: 23.8%
SU.86.86
  Max Cytotox at 1 nM: 92.5%
SW-1990
  Max Cytotox at 1 nM: 54.7%
